Results published in PMC9335266 (Proceedings of the National Academy of Sciences of the …, 2022).

Target: TRIM7^B30.2 (PRY-SPRY domain of human TRIM7, residues 338-511) (human, UniProt Q9C029 338-511)
Assay: ITC

How did the Kd turn out when KRKLDTYLQ [GN1 peptide (KRKLDTYLQ), Ct-nonapeptide of glycogenin-1] was run?
Its Kd is 2.7 µM.
